The values below come from US20230174617A1 (PROGEN, published 2023).

Experiment [1] concerns the target anti-DNP mouse IgE (Sigma). As to the kind of experiment: cell-based or functional assay.
In experiment [2] the target is human IgE. As to the kind of experiment: BLI (Octet K2), fusion protein on AR2G sensor, human IgE as analyte.
The target of experiment [3] is anti-DNP mouse IgE (Sigma). As to the kind of experiment: BLI (Octet K2), fusion protein on sensor, anti-DNP mouse IgE as analyte, first test. As for the experimental part: (§1) Specifically, 200 μl of D. W. was dispensed into a 96-well plate, and then an amine biosensor included in the kit was inserted to perform hydration for 10 minutes. Subsequently, after 200 μl of D. W. was additionally dispensed, EDC and NHS were mixed at 1:1 in an amount of 1/20 of the required sample amount and then diluted with D. W., and 200 μl of the resultant was dispensed into the 96-well plate. Next, the FcεRIα-modified IgG4 Fc protein and the FcεRIα-NTIG-IL-10Vm fusion protein were diluted to 10 μg/ml in a 10 mM acetate solution having a pH of 5.0, and then 200 μl of the resultant was added to the 96-well plate. After 200 μl of 1 M ethanolamine was added to the 96-well plate, the biosensor plate and the sample plate were placed in an Octet®-K2 instrument and measured. After the measurement was completed, 200 μl of a 1× kinetics buffer solution was added to the sample plate, and then a baseline was determined.
For orientation: In BLI a coated tip is dipped into the sample, and binding shifts an interference pattern.

In experiment [4] the target is anti-DNP mouse IgE (Sigma). As to the kind of experiment: BLI (Octet K2), fusion protein on sensor, anti-DNP mouse IgE as analyte, third test. As for the experimental part: as §1
For experiment [5], the target named is anti-DNP mouse IgE (Sigma). As to the kind of experiment: BLI (Octet K2), fusion protein on sensor, anti-DNP mouse IgE as analyte, second test. The protocol:
as §1

The target in experiment [6] is anti-DNP mouse IgE (Sigma). As to the kind of experiment: BLI (Octet K2), fusion protein on AR2G sensor, anti-DNP mouse IgE as analyte, first test. As for the experimental part:
as §1

Experiment [7] concerns the target anti-DNP mouse IgE (Sigma). As to the kind of experiment: BLI (Octet K2), fusion protein on AR2G sensor, anti-DNP mouse IgE as analyte, third test. As for the experimental part: as §1
Experiment [8] has as its target anti-DNP mouse IgE (Sigma). As to the kind of experiment: BLI (Octet K2), fusion protein on AR2G sensor, anti-DNP mouse IgE as analyte, second test. The protocol: as §1
The target in experiment [9] is anti-DNP mouse IgE (Sigma). As to the kind of experiment: BLI (Octet K2), fusion protein on AR2G sensor, anti-DNP mouse IgE as analyte, mean of three tests. As for the experimental part:
as §1

Experiment [10] addresses T1, IL-10 receptor 1 (IL-10R1), IL-10R His-tag protein (UniProt Q13651 22-235, limits assumed).
T1 construct: not shown: His tag
T1 sequence (looked up): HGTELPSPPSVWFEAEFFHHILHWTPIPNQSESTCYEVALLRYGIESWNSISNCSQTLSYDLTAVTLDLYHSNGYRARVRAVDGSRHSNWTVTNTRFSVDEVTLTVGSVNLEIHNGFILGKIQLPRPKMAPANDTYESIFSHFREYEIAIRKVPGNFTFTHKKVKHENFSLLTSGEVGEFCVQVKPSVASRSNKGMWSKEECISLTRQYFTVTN
As to the kind of experiment: BLI (Octet K2), IL-10R His-tag protein on AR2G sensor. The protocol:
(§2) For the analysis, the present inventors attached an IL-10R His-tag protein to a 96-well plate using a Dip and Read™ Amine Reactive 2nd Generation (AR2G) Reagent Kit (forteBio, Cat No. 18-5092). Specifically, 200 μl of D. W. was dispensed into a 96-well plate, and an amine biosensor included in the kit was inserted to perform hydration for 10 minutes. Subsequently, after 200 μl of D. W. was additionally dispensed into a new 96-well plate, EDC and NHS were mixed at 1:1 in an amount of 1/20 of the required sample amount and then diluted with D. W., and 200 μl of the resultant was dispensed into the 96-well plates. Next, the IL-10R His-tag protein was diluted to 10 μg/ml in a 10 mM acetate solution having a pH of 5.0, and then 200 μl of the resultant was added to the 96-well plates. After 200 μl of 1 M ethanolamine was added to the 96-well plates, the biosensor plate and the sample plate were placed in an Octet®-K2 instrument and measured. After the measurement was completed, 200 μl of a 1× kinetics buffer solution was added to the sample plate, and then a baseline was determined.

For experiment [11], the target named is T1, IL-10 receptor 1 (IL-10R1), IL-10R …. As to the kind of experiment: BLI (Octet K2), IL-10R His-tag protein on AR2G sensor, fusion protein 62.5 to 1,000 nM. As for the experimental part: as §2
The target of experiment [12] is T2, recombinant human neonatal Fc receptor (rhFcRn, R&D systems) (human, UniProt P55899 24-297; P61769 21-119).
T2 construct: Bought reagent; also called recombinant FcRn
As to the kind of experiment: SPR, steady state affinity, rhFcRn on chip, pH 6.0. As for the experimental part: (§3) As the analyzer, Biocore 8K (GE Healthcare, USA) was used, and all reagents used in the analysis were purchased from GE Healthcare. […] The experiment was performed at a flow rate of 30 μl/min at 25° C., an association of an analyte was performed for 60 seconds, and then dissociation was performed for 60 seconds. […] At this time, the buffer solution was replaced with a PBS buffer solution having a pH of 7.4 during regeneration.
(§4) During the regeneration, a PBS buffer solution having a pH of 7.4 was used.
(Surface plasmon resonance follows binding to a sensor surface in real time, without labels.)

The target of experiment [13] is T3, FcγRIIb (UniProt P31994 46-217, limits assumed).
T3 sequence (looked up): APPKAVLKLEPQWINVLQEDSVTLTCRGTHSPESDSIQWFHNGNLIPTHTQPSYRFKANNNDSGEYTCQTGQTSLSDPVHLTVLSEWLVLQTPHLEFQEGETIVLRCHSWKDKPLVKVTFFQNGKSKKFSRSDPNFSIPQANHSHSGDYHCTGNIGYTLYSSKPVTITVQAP
As to the kind of experiment: BLI, single trace with fit; PBS panel as control.

In experiment [14] the target is FcγRIIIb (UniProt O75015 17-200, limits assumed). As to the kind of experiment: BLI, single trace with fit; PBS panel as control.
Experiment [15] concerns the target T4, FcγRIIa (UniProt P12318 36-218, limits assumed).
T4 sequence (looked up): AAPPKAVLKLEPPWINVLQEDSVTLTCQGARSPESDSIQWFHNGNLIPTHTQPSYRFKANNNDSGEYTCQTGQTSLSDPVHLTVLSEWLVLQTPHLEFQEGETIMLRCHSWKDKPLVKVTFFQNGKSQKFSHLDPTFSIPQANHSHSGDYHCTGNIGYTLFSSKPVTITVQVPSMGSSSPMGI
As to the kind of experiment: BLI, single trace with fit; PBS panel as control.

Experiment [16] concerns the target T2, recombinant human neonatal Fc receptor …. As to the kind of experiment: SPR, rhFcRn on CM5, analyte in PBST pH 6.0, steady state affinity.
Source text: as §4

The target in experiment [17] is T5, Fc gamma receptor I (FcγRI) (UniProt P12314 16-288, limits assumed).
T5 construct: also called FcγR1
As to the kind of experiment: BLI; concentrations and the immobilised partner are not given.

In experiment [18] the target is T6, Fc gamma receptor IIIa (FcγRIIIa) (UniProt P08637 17-208, limits assumed).
T6 construct: also called FcγR3a
The description is as above.

Experiment [19] has as its target T7, complement C1q (UniProt P02745 23-245; P02746 28-253; P02747 29-245).
T7 construct: the method text names a C1q-HRP conjugate; also called C1q-HRP conjugate
As to the kind of experiment: ELISA, PG-11 coated at 2 µg/ml, C1q in varied concentration, OD 450 nm. For orientation: In an ELISA, binding on a coated surface is turned into a signal by an enzyme label.
Protocol: Subsequently, 100 μl of each diluted sample was loaded into each well and reacted overnight at 4° C. Next, washing was performed three times by adding 300 μl of a washing buffer solution to the plate each time, 200 μl of a blocking buffer solution (2% BSA/PBS) was added to each well and reacted at room temperature for 2 hours. 300 μl of the washing buffer solution was added to the plate, then washing was repeatedly performed three times, an anti-C1q antibody was diluted with an assay buffer solution to 10, 3, 1, 0.3, and 0.1 μg/ml by ⅓, and mixed (duplication) in an amount of 50 μl in each well, and then the resultant was reacted at room temperature for 2 hours. Then, the washing buffer solution was mixed in the plate by 300 μl each time and washing was repeatedly performed eight times. A C1q-HRP conjugate was diluted 400-fold, and 50 μl of the resultant was added to each well and reacted at room temperature for 1 hour. The washing buffer solution was added to the plate by 300 μl each time, washing was repeatedly performed eight times, 50 μl of TMB as a substrate was mixed, and the resultant was reacted at room temperature. When the color development reaction appeared in blue, 50 μl of a stop solution was added to each well to stop the reaction, and then optical density was measured using a microplate reader set at 450 nm.

For experiment [20], the target named is T2, recombinant human neonatal Fc receptor …. As to the kind of experiment: SPR (Biacore 8K), rhFcRn amine-coupled on CM5, analyte in PBST pH 6.0, steady state affinity. As for the experimental part:
as §3

T2 sequence (P55899 24-297 limits assumed, chain 1 of 2): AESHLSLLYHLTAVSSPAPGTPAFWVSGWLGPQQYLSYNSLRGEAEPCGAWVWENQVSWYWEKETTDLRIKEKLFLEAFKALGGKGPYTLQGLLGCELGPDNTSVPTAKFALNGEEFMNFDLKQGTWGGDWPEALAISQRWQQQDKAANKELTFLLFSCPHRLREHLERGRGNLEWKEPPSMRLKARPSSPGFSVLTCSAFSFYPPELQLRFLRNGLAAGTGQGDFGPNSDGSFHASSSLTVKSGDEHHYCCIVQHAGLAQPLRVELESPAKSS
T2 sequence (P61769 21-119 limits assumed, chain 2 of 2): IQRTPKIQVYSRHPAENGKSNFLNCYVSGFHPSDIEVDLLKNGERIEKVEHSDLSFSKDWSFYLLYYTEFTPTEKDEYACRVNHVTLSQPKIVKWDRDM
Sequence of FcγRIIIb (O75015 17-200 limits assumed): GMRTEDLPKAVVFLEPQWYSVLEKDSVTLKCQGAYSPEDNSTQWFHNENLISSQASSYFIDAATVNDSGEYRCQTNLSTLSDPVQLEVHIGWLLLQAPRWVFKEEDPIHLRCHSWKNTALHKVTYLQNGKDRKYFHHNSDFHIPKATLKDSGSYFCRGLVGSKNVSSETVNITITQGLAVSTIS
T5 sequence (P12314 16-288 limits assumed): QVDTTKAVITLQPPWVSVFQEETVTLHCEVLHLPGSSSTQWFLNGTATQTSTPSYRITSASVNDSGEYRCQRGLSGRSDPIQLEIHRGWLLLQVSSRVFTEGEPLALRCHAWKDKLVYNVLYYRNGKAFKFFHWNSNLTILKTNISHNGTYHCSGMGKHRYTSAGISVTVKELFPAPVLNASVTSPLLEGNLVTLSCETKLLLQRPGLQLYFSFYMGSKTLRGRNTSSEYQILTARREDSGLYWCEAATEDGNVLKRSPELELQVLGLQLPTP
T7 sequence (P02745 23-245 limits assumed, chain 1 of 3): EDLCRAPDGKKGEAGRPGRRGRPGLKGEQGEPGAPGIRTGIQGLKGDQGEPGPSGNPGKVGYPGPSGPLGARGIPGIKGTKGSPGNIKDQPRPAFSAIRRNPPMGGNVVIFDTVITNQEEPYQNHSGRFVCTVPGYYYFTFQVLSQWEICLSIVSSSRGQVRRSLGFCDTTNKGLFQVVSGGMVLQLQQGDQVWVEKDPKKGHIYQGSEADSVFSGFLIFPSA
T7 sequence (P02746 28-253 limits assumed, chain 2 of 3): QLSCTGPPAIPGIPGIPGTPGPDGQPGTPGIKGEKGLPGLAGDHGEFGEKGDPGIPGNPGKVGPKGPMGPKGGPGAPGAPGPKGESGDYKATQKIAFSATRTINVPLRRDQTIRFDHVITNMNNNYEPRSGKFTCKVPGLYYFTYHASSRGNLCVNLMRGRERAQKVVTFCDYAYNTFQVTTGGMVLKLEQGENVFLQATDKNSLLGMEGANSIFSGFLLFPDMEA
T7 sequence (P02747 29-245 limits assumed, chain 3 of 3): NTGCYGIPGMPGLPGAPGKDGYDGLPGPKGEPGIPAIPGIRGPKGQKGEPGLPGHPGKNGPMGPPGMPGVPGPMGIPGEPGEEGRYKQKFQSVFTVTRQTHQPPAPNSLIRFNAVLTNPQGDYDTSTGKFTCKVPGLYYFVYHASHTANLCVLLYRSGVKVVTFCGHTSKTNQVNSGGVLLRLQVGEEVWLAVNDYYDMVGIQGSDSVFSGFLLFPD
T6 sequence (P08637 17-208 limits assumed): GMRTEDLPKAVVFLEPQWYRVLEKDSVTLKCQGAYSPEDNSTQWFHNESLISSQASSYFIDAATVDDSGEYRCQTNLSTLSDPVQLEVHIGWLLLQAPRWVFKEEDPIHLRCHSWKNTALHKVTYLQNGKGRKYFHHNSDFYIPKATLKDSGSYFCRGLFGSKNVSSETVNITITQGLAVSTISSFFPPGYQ

B1: PG-110 (FcεRIα-NTIG-IL-10Vm) (Fc fusion)
chain: VPQKPKVSLNPPWNRIFKGENVTLTCNGNNFFEVSSTKWFHNGSLSEETNSSLNIVNAKFEDSGEYKCQHQQVNESEPVYLEVFSDWLLLQASAEVVMEGQPLFLRCHGWRNWDVYKVIYYKDGEALKYWYENHNISITNATVEDSGTYYCTGKVWQLDYESEPLNITVIKAPREKYWLQGGGGSGGGGSGGGGSEPKSSDKTHTCPPCPSHTQPLGVFLFPPKPKDQLMISRTPEVTCVVVDVSQEDPEVQFNWYVDGVEVHNAKTKPREEQFNSTYRVVSVLTVLHQDWLNGKEYKCKVSNKGLPSSIEKTISKAKGQPREPQVYTLPPSQEEMTKNQVSLTCLVKGFYPSDIAVEWESNGQPENNYKTTPPVLDSDGSFFLYSRLTVDKSRWQEGNVFSCSVLHEALHNHYTQKSLSLSLGAAGSGGGGGSGGGGSGGGGSSPGQGTQSENSCTHFPGNLPNMLRDLRDAFSRVKTFFQMKDQLDNLLLKESLLEDFKGYLGCQALSEMIQFYLEEVMPQAENQDPDAKAHVNSLGENLKTLRLRLRRCHRFLPCENGGSGGSGGSKSKAVEQVKNAFNKLQEKGIYKAMSEFDIFINYIEAYMTMKIRN
notes: Produced in a CHO DG44 cell line
For B1, in experiment [1], the “IC50 (nM), β-hexosaminidase release from mouse marrow-derived mast cells, column headed 'Fourth test' (equals the mean of the three tests)” value is 16.9 nM. The “IC50 (nM), β-hexosaminidase release from mouse marrow-derived mast cells, first test” value in experiment [1] is 21.6 nM. Further, the “IC50 (nM), β-hexosaminidase release from mouse marrow-derived mast cells, second test” value in [1] worked out at 14.8 nM. In addition, in [1], the “IC50 (nM), β-hexosaminidase release from mouse marrow-derived mast cells, third test” value was 14.4 nM. Further, the Kd – broadly, the equilibrium constant for the complex coming apart – is 0.346 nM in experiment [2]; 0.224 nM in experiment [6]; 0.346 nM in experiment [7]; 0.282 nM in experiment [8]; 0.284 nM in experiment [9]. The koff (usually the rate constant with which the complex falls apart) in experiment [2] turned out to be 7.59e-05 s⁻¹; in experiment [3], 3.4e-05 s⁻¹; in experiment [4], 4.82e-05 s⁻¹; in experiment [5], 4.06e-05 s⁻¹. Besides, the kon – broadly, the rate constant with which the complex forms – in experiment [2] was 219000 M⁻¹ s⁻¹; in experiment [3], 152000 M⁻¹ s⁻¹; in experiment [4], 139000 M⁻¹ s⁻¹; in [5] it was 144000 M⁻¹ s⁻¹.

B2: PG-088m (NTIG-IL-10Vm) (Fc fusion)
chain: SHTQPLGVFLFPPKPKDQLMISRTPEVTCVVVDVSQEDPEVQFNWYVDGVEVHNAKTKPREEQFNSTYRVVSVLTVLHQDWLNGKEYKCKVSNKGLPSSIEKTISKAKGQPREPQVYTLPPSQEEMTKNQVSLTCLVKGFYPSDIAVEWESNGQPENNYKTTPPVLDSDGSFFLYSRLTVDKSRWQEGNVFSCSVLHEALHNHYTQKSLSLSLGAAGSGGGGGSGGGGSGGGGSSPGQGTQSENSCTHFPGNLPNMLRDLRDAFSRVKTFFQMKDQLDNLLLKESLLEDFKGYLGCQALSEMIQFYLEEVMPQAENQDPDAKAHVNSLGENLKTLRLRLRRCHRFLPCENGGSGGSGGSKSKAVEQVKNAFNKLQEKGIYKAMSEFDIFINYIEAYMTMKIRN
notes: also called monomeric IL-10 variant fusion protein
With B2, in experiment [10], the “fold KD against the dimeric IL-10 fusion protein of Example 2-3” value is ~3 fold, the koff was determined as 0.0006 s⁻¹ and the kon was 20600 M⁻¹ s⁻¹. Also, the Kd in experiment [11] came to 29.2 nM.

B3: PG-11 (GLP-1E-NTIG) (Fc fusion)
chain: HGEGTFTSDVSSYLEGQAAKEFIAWLVKGGPSSGAPPPSGGGGSGGGGSGGGGSEKEKEEQEERTHTCPPCPSHTQPLGVFLFPPKPKDQLMISRTPEVTCVVVDVSQEDPEVQFNWYVDGVEVHNAKTKPREEQFNSTYRVVSVLTVLHQDWLNGKEYKCKVSNKGLPSSIEKTISKAKGQPREPQVYTLPPSQEEMTKNQVSLTCLVKGFYPSDIAVEWESNGQPENNYKTTPPVLDSDGSFFLYSRLTVDKSRWQEGNVFSCSVLHEALHNHYTQKSLSLSLGK
notes: Produced in ExpiCHO and purified on protein A. The hinge is said in general to dimerise the fusion, but no copy number is stated for PG-11; also called PG-II
Regarding B3, the “fold affinity against Rituximab” value in experiment [12] is ~9.3 fold. Besides, the “fold affinity against Trulicity” value in experiment [12] is ~5.3 fold. Moreover, the binding result in experiment [13] is “no binding”; in [14] it was “no binding”; in experiment [15], “no binding”; in [17], “no binding”; in experiment [18] it was “no binding”; in [19], “no binding (tested: 10.0 µg/mL)”. In addition, the Kd in experiment [16] amounted to 256 nM; in experiment [20], 397 nM.

B4: PG-088 (NTIG-IL-10V) (Fc fusion)
chain: GGGGSGGGGSGGGGSEPKSSDKTHTCPPCPSHTQPLGVFLFPPKPKDQLMISRTPEVTCVVVDVSQEDPEVQFNWYVDGVEVHNAKTKPREEQFNSTYRVVSVLTVLHQDWLNGKEYKCKVSNKGLPSSIEKTISKAKGQPREPQVYTLPPSQEEMTKNQVSLTCLVKGFYPSDIAVEWESNGQPENNYKTTPPVLDSDGSFFLYSRLTVDKSRWQEGNVFSCSVLHEALHNHYTQKSLSLSLGKAAGSGGGGGSGGGGSGGGGSSPGQGTQSENSCTHFPGNLPNMLRDLRDAFSRVKTFFQMKDQLDNLLLKESLLEDFKGYLGCQALSEMIQFYLEEVMPQAENQDPDAKAHVNSLGENLKTLRLRLRRCHRFLPCENKSKAVEQVKNAFNKLQEKGIYKAMSEFDIFINYIEAYMTMKIRN
notes: also called dimeric IL-10 variant fusion protein
In experiment [10], B4 registered a koff of 0.0008 s⁻¹ and an on-rate constant (kon) of 71100 M⁻¹ s⁻¹. The same molecule showed a Kd in [11] of 11.1 nM.
